Experimental data published in the DeepSol protein solubility set.

Assay: soluble on expression in E. coli; label from the status in PepcDB or PDB records

Sequence | soluble on expression in E. coli
MSLKKEYLQCQSLVDVVRLRALHSPNKKSCTFLNKELEETMTYEQLDQHAKAIAATLQAEGAKPGDRVLLLFAPGLPLIQAFLGCLYAGCIAVPIYPPAQEKLLDKAQRIVTNSKPVIVLMIADHIKKFTADELNTNPKFLKIPAIALESIELNRSSSWQPTSIKSNDIAFLQYTSGSTMHPKGVMVSHHNLLDNLNKIFTSFHMNDETIIFSWLPPHHDMGLIGCILTPIYGGIQAIMMSPFSFLQNPLSWLKHITKYKATISGSPNFAYDYCVKRIREEKKEGLDLSSWVTAFNGAEPVREETMEHFYQAFKEFGFRKEAFYPCYGLAEATLLVTGGTPGSSYKTLTLAKEQFQDHRVHFADDNSPGSYKLVSSGNPIQEVKIIDPDTLIPCDFDQVGEIWVQSNSVAKGYWNQPEETRHAFAGKIKDDERSAIYLRTGDLGFLHENELYVTGRIKDLIIIYGKNHYPQDIEFSLMHSPLHHVLGKCAAFVIQEEHEYKLTVMCEVKNRFMDDVAQDNLFNEIFELVYENHQLEVHTIVLIPLKAMPHTTSGKIRRNFCRKHLLDKTLPIVATWQLNKIEEGHHHHHH | soluble
QAAELEITVTNATKGIYFTPLIVAAHDSDLHMFKVGESATAELEAMAEGGDISGLSTVIGNAGGAVVENPAGGILNPGAATTFTLDSGDHG | not soluble
MGSDKIHHHHHHMNSIVNDLNRALAQHLLVNVYQTNQEVVYTGYVTTVSDTGIILATYDDYGIPDGAVFLDLTAIDEVEFSSDDLDNMAFRIQTAQDEQFVQAGGLTLQFDGHRDLKRQVLSHAWVDHLVLMLVLKDDEHFYEGIVTSVAAEQVSLQLLNKFDYTDQPLLTLTPKDIEVIEFQGQELTLQGIALPHLQKLSHVAPTTVTDADQFVPTLQQLVGKEPLVALVPKHNRELFFVGRINTVTADGVIMNLLDMTGQFGGYTLMRLSELHEIVLKSDYLQTMRLFALLNRARQQPIQPVLNDERLFDATVDQFGARISQAAAFRTIIRLKLHDGTDLLGFPSQVGGQRFIFHEIDDQQVDQVGQVYRLADVDEVAFGYLDAYLVERQLRVEGDL | not soluble
GSMLISHSDMNQQLKSAGIGFNATELHGFLSGLLCGGLKDQSWLPLLYQFSNDNHAYPTGLVQPVTELYEQISQTLSDVEGFTFELGLTEDENVFTQADSLSDWANQFLLGIGLAQPELAKEKGEIGEAVDDLQDICQLGYDEDDNEEELAEALEEIIEYVRTIAMLFYSHFNEGEIESKPVLH | soluble
LRVSDGIAGKMTVLALKNTDERLRADKSVSVGFVLAALMWPELERHWKSNLQQGLKPAPALSDAINTMRETVERGWGVPQRFSATMREIWMFQPQFENRKGARPHKLFAQARFRAAYDFLLLRAETGNADRALAEWWTAFQTASTEQRSEMTKNEAAARHEKNEGQAKKRRRRRRKPKPKVVGTDWE | not soluble
MSLTARIDQLLLERLKSAGVEPAPAADDGEFLRRAYLDLSGTIPPVAITRDYLADSSPAKRRQLIERLLASPAFASHLASTWREIILKPTDDFQQLQNQFALQAWLREQFSENARYDRIVEQFITASSEQDGPVYFYDALDLKPEQLAAETSRIFLGLHIQCAECHDHPFDDWKQRDFWGYAAFFARVAKRDSAMGRISEGHHHHHH | soluble
MDLTNGGVSPAATSAPLDWTTFRRVFLIDDAWRPLMEPELANPLTAHLLAEYNRRCQTEEVLPPREDVFSWTRYCTPDEVRVVIIGQNPYHHPGQAHGLAFSVRANVPPPPSLRNVLAAVKNCYPEARMSGHGCLEKWARDGVLLLNTTLTVKRGAAASHSRIGWDRFVGGVIRRLAARRPGLVFMLWGTHAQNAIRPDPRVHCVLKFSNPSPLSKVPFGTCQHFLVANRYLETRSISPIDWSV | soluble
MAHLLQLHHVSKSYREKKAIDDLTITIPNGKIIGLLGPNGSGKTTLIKLINGLLQPNKGEIVIDGYRPCVETKKIISYLPDTTYLNENMRIKDMLEFFSDFYSDFDKSKATSLLRDLELDPEDRFKTLSKGNKEKVQLILVMSRKARLYVLDEPIGGVDPAARDYILKTIINSYCENASVIISTHLISDIEPILDEVIFLKQGRLFLSGNADDLRQEYQQSIDSLFRETYKV | not soluble
MLIDDIDFADLYLQQLKLAHRTEKTPDHWDQRAEKMAENCASPTDSYLQQLIAKIDLQGAQTLFDMGCGPGTVSLALADKLTTVYGVDYSQGMLNVAARRAAALKADNVHWIQRAWEEDWSDLPRCDIAVASRSTLVADMRHAMSKLNNQARLRVYTTHLVSTSFVSPAIQRAAGREVIELPNYIFALNVLYQMGIYAHVDFIRGQNCQQDNSTWERFEQNVSWSLGALNDDERERLYHWYQQQDARALAPASRDWALIWWDSVPQEAL | not soluble
MNKGQRHIKIREIITSNEIETQDELVDMLKQDGYKVTQATVSRDIKELHLVKVPTNNGSYKYSLPADQRFNPLSKLKRALMDAFVKIDSASHMIVLKTMPGNAQAIGALMDNLDWDEMMGTICGDDTILIICRTPEDTEGVKNRLLELL | soluble
MIQDETLEREVADLVISTLNLDVSPESVDPEAPLYREGLGLDSIDILEIALVVSKRYGFQLRADNEDNVLEHHHHHH | not soluble
MGSDKIHHHHHHMGIYRTQLPQLDGGVFLTDGGIETTLIFHEGFELPYFAAFELLKTPQGRDALTHYFVTYVKLAGLFDTGFILESPTWRASSDWGALLGYTKETLAQANREAIALLEVIREAHSGRLPVVVSGCIGPRFDGYLPDKSMTAEDARHYHSIQIETLASTSADMICALTLNRVEEAIGIVEAAREAAMPVVISFTLETDGRLPTGQSLGDAVVQVDEATAGYAAYFMINCAHPSHLETVPQDAPWLARVKGFRANASSLSHAELNDATTLDDGDPHQLGQQYASLMSTRLKGLNVLGGCCGTDHRHLEQIAKACIKPR | not soluble
MAHHHHHHSLSGPRVERLEVSAYTVPTDYPESDGTLQWDSTTMILVEAHGGGRKGLGYTYGDVSVGRFVESKLAGVAEGSDALSPPAVWARMQAAIRNAGRPGVGAMAVSAVDIALWDLKARLLGLPLADALPRFHAEVPVYGSGGFTSYPLRRLQEQLGGWAAAGIPRVKMKVGREPEKDPERVRAAREAIGESVELMVDANGAYTRKQALYWAGAFAREAGISYLEEPVSSEDREGLRLLRDRGPGGVAIAAGEYEWTLPQLHDLAGCVDILQADVTRCGGITGLLRVDGICRGHQIPFSAHCAPAVSAHACCAVESLLHLEYFHDHARVERLLFDGTLDPEGGSLRPDPDRPGLGLELKRSEAGKYAA | soluble
MNRLKSDQKTKLRQFVQWTQVTEAVSLNFLAKANWNIEYAMTLYFDNPNLFAGSTPQPSVDRSNIERLFNQYVDPKDKVGEKRMGPHGINRLLTDLGYEATDRRVLVLAWKFTAQTQCEFSLDEWVKGMTALQADTVQNLRQRIDSINSGLESDKAKFHELYLFAFNYAKSAACRNLDLETAICCWDVLFGQRSTIMTQWIDFLWAQENAAASRLAQNVGASNAKQFKSVWISRDTWNLFWDFILLSKPDLSDYDDEGAWPVLIDQFVDYCRENLNYPKPGNASNDQQMETPSYY | not soluble
MGHHHHHHSHAPALGGQQSVSNKLLAWSGVLEWQEKPKPASVDANTKLTRSLPCQVYVNHGENLKTEQWPQKLIMQLIPQQLLTTLGPLFRNSRMVQFHFTNKDLESLKGLYRIMGNGFAGCVHFPHTAPCEVRVLMLLYSSKKKIFMGLIPYDQSGFVNGIRQVITNHKQVQQQKLEQQQRGMGGQQAPPGLGPILEDQARPSQNLLQLRPPQPQPQ | not soluble
SGEVEISARAYGKMCLHASRYPHAAVNGLLLAPATGSGECLCLTDCVPLFHSHLALSVMLEVALNQVDVWGAQAGLVVAGYYHANAVLDDQSPGPLALKIAGRIAEFFPRAVLIMLDNKKLVTRPRVPPVIVLENQGLQWVPKDKNLVMWRDWEESRQMVGALLEGRAHQHLVDFDCHLDDIRQDWTNQRLNTQITQWSGSTDGNA | soluble
SGKMVSVINTVDTSHEDMIHDAQMDYYGTRLATCSSDRSVKIFDVRNGGQILIADLRGHEGPVWQVAWAHPMYGNILASCSYDRKVIIWREENGTWEKSHEHAGHDSSVNSVCWAPHDYGLILACGSSDGAISLLTYTGEGQWEVKKINNAHTIGCNAVSWAPAVVPGSLIDHPSGQKPNYIKRFASGGCDNLIKLWKEEEDGQWKEEQKLEAHSDWVRDVAWAPSIGLPTSTIASCSQDGRVFIWTCDDASSNTWSPKLLHKFNDVVWHVSWSITANILAVSGGDNKVTLWKESVDGQWVCISDVNKGQGSVSASVTEGQQNEQ | soluble
MATLRIGLVSISDRASSGVYQDKGIPALEEWLTSALTTPFELETRLIPDEQAIIEQTLCELVDEMSCHLVLTTGGTGPARRDVTPDATLAVADREMPGFGEQMRQISLHFVPTAILSRQVGVIRKQALILNLPGQPKSIKETLEGVKDAEGNVVVHGIFASVPYCIQLLEGPYVETAPEVVAAFRPKSARRDVSE | soluble
MTNVCDLTDRKCKPCEGGVPPLEMEEAEKLLKQLEQGWQLADNKISRTFSFKNYYQTMAFVNAIAWVSHREDHHPDMMVGYDWCRVEYMTHAIGGLSENDFICAAKVDMLFKS | not soluble
GPGSMASTSGPASLEEAALASLGNYSPEQLQMAETALRAVLMEKVQALAAEHGDAFIQSLVQKEIARTRKMETELANVKKRLGVQERCVDSMRMDVRKVKAQEEKSKYICQNLQETARRREQLTEKMQPEMEAYRSDVRERVSENVQSIWAECEKRRERVETVEAEVTELEAGLAHKKETFERSFAEFQDGLKGRTAEYQELIVAYQEATKEVELIEAQLMLVRRERQSVETTRAALQQQLEVYEKQFDGFAEAVMKPEDVEALAKRQHDQAQMRITELEAEKTNVHQQRLQMDKELTDLRAKHASLKREMQQLEKAKTAAEKKCRQAQQSRQEKK | not soluble
IRRKINANVYDKVVLYAPTWRGIHGKATLDIEKLKNDLEKLADQDCHIVFRGHHMIEKLVSEQNISGITIVPSEIDTNELLGAIDILITDYSSIAFDFFVMNRPVIYYAYDIEQYNNERGLYFPLNELPGTVCFNDVELLNTLSGYLRNEIYFDASKGIDKFCKNDDGSVCGKVIEWFFF | not soluble
MATMTTKSHCTFNPDYYQDVWQRFGEEEYDVVVIGGGSVGAGAGLDAAIRGLKVAVVESRDFAAGTSSRSSKMFHGGLRYLAMLDFKLVAESLHERELNMSTLAPHLVKPLKFLFPLTHHVWERVMMFGGFTLYDLMGGAKSVPMQKHYSRKGTLAMAPGLKDDAVVGSVRYFDTLVDDARHTMTVLRTAGELGADVRPSTQVVGFEKDGQRVVGAILQDTDTGEQTTIRGKVFINATGVWNDHIEKLAGGNGPFSVHASKGVHIVVPKNVFDADAAMCFVTEKSVLFVIPWGEYWIIGTTDTDWDLNRADPAPTAADINYILDEVNQRVRRPIQHSDIVGVYSGLRPLLSGKSDTTTKLSRNHAVAKVMPGLVSVAGGKYTTYRVIGKDAVDLATEDLDFRVPASESERTPILGADGYHALQNQAPRIARTFGTTEDVVEHLLGRYGSLVHEVLEPSVDKPELLEPIPGAPGYIKAEAVYAVTHEGALHVEDIVERRLRAGIEYADRGVAAAPAIAELVADYLGWDAERTAAEVTAFTDRVSAEIAAEKELTDKAANEHIVAGSAVRSYVDVSGDNLEHHHHHH | soluble
MAHHHHHHMENILSKVDKIEPFDPKVKEQYNQFKYDVTKQAIESLRERIPQRIIYFNTLVNVNAEPGSILDVRDLDTKTYKYTSNQTEENARKKHKTSDHNVTEKKKDSIEMNTQNDINYEEKKIVIDENIIYTHYVPSHKQISAELEKIKAYSSELIEIIGNIKLWIQLNVPRIEDGNNFGVGIQEEAIQELARVEESAFNLYDAIVKYYMDRAKLATKVIKYPNVHDYQEAVQELDKKEWIHIKITIIDMRNNYIMLYDLLCKNWEKVVKPKNEDAHHRMTF | soluble
